# Bridges are numbered along the chain shown (N, C = ends). [ ]: non-standard residue; d: D form. Phe(4-CF3) = N[C@@H](Cc1ccc(C(F)(F)F)cc1)C(=O)O; hSer = N[C@@H](CCO)C(=O)O; Dab = NCC[C@H](N)C(=O)O; Dap = NC[C@H](N)C(=O)O
# B1: cyclo(-Tyr-His-Lys-Cys-His-Gly-^DPro-Trp-Thr-Leu-Cys-Tyr-Glu-Lys-^DPro-Pro-) (peptide)
# peptide: cyclo(YHKCHG[dP]WTLCYEK[dP]P)
# modifications: disulfide 4-11
# SMILES: CC(C)C[C@@H]1NC(=O)[C@H]([C@@H](C)O)NC(=O)[C@H](Cc2c[nH]c3ccccc23)NC(=O)[C@H]2CCCN2C(=O)CNC(=O)[C@H](Cc2c[nH]cn2)NC(=O)[C@@H]2CSSC[C@H](NC1=O)C(=O)N[C@@H](Cc1ccc(O)cc1)C(=O)N[C@@H](CCC(=O)O)C(=O)N[C@@H](CCCCN)C(=O)N1CCC[C@@H]1C(=O)N1CCC[C@H]1C(=O)N[C@@H](Cc1ccc(O)cc1)C(=O)N[C@@H](Cc1c[nH]cn1)C(=O)N[C@@H](CCCCN)C(=O)N2
# B2: cyclo(-Dab-His-Lys-Cys-Trp-Gly-^DPro-Trp-Thr-Ile-Cys-Tyr-Glu-Lys-^DPro-Pro-) (peptide)
# peptide: cyclo([Dab]HKCWG[dP]WTICYEK[dP]P)
# modifications: disulfide 4-11
# SMILES: CC[C@H](C)[C@@H]1NC(=O)[C@H]([C@@H](C)O)NC(=O)[C@H](Cc2c[nH]c3ccccc23)NC(=O)[C@H]2CCCN2C(=O)CNC(=O)[C@H](Cc2c[nH]c3ccccc23)NC(=O)[C@@H]2CSSC[C@H](NC1=O)C(=O)N[C@@H](Cc1ccc(O)cc1)C(=O)N[C@@H](CCC(=O)O)C(=O)N[C@@H](CCCCN)C(=O)N1CCC[C@@H]1C(=O)N1CCC[C@H]1C(=O)N[C@@H](CCN)C(=O)N[C@@H](Cc1c[nH]cn1)C(=O)N[C@@H](CCCCN)C(=O)N2
# B3: cyclo(-Tyr-His-Lys-Cys-Trp-Gly-^DPro-Trp-Thr-Ile-Cys-Tyr-Dab-Lys-^DPro-Pro-) (peptide)
# peptide: cyclo(YHKCWG[dP]WTICY[Dab]K[dP]P)
# modifications: disulfide 4-11
# SMILES: CC[C@H](C)[C@@H]1NC(=O)[C@H]([C@@H](C)O)NC(=O)[C@H](Cc2c[nH]c3ccccc23)NC(=O)[C@H]2CCCN2C(=O)CNC(=O)[C@H](Cc2c[nH]c3ccccc23)NC(=O)[C@@H]2CSSC[C@H](NC1=O)C(=O)N[C@@H](Cc1ccc(O)cc1)C(=O)N[C@@H](CCN)C(=O)N[C@@H](CCCCN)C(=O)N1CCC[C@@H]1C(=O)N1CCC[C@H]1C(=O)N[C@@H](Cc1ccc(O)cc1)C(=O)N[C@@H](Cc1c[nH]cn1)C(=O)N[C@@H](CCCCN)C(=O)N2
# B4: cyclo(-Asp-His-Lys-Cys-His-Gly-^DPro-Trp-Thr-Ile-Cys-Tyr-Glu-Lys-^DPro-Pro-) (peptide)
# peptide: cyclo(DHKCHG[dP]WTICYEK[dP]P)
# modifications: disulfide 4-11
# SMILES: CC[C@H](C)[C@@H]1NC(=O)[C@H]([C@@H](C)O)NC(=O)[C@H](Cc2c[nH]c3ccccc23)NC(=O)[C@H]2CCCN2C(=O)CNC(=O)[C@H](Cc2c[nH]cn2)NC(=O)[C@@H]2CSSC[C@H](NC1=O)C(=O)N[C@@H](Cc1ccc(O)cc1)C(=O)N[C@@H](CCC(=O)O)C(=O)N[C@@H](CCCCN)C(=O)N1CCC[C@@H]1C(=O)N1CCC[C@H]1C(=O)N[C@@H](CC(=O)O)C(=O)N[C@@H](Cc1c[nH]cn1)C(=O)N[C@@H](CCCCN)C(=O)N2
# B5: cyclo(-Tyr-His-Dap-Cys-His-Gly-^DPro-Trp-Thr-Ile-Cys-Tyr-Glu-Lys-^DPro-Pro-) (peptide)
# peptide: cyclo(YH[Dap]CHG[dP]WTICYEK[dP]P)
# modifications: disulfide 4-11
# B6: cyclo(-Tyr-His-Dab-Cys-Trp-Gly-^DPro-Trp-Thr-Ile-Cys-Tyr-Glu-Lys-^DPro-Pro-) (peptide)
# peptide: cyclo(YH[Dab]CWG[dP]WTICYEK[dP]P)
# modifications: disulfide 4-11
# B7: cyclo(-His-His-Lys-Cys-His-Gly-^DPro-Trp-Thr-Ile-Cys-Tyr-Glu-Lys-^DPro-Pro-) (peptide)
# peptide: cyclo(HHKCHG[dP]WTICYEK[dP]P)
# modifications: disulfide 4-11
# SMILES: CC[C@H](C)[C@@H]1NC(=O)[C@H]([C@@H](C)O)NC(=O)[C@H](Cc2c[nH]c3ccccc23)NC(=O)[C@H]2CCCN2C(=O)CNC(=O)[C@H](Cc2c[nH]cn2)NC(=O)[C@@H]2CSSC[C@H](NC1=O)C(=O)N[C@@H](Cc1ccc(O)cc1)C(=O)N[C@@H](CCC(=O)O)C(=O)N[C@@H](CCCCN)C(=O)N1CCC[C@@H]1C(=O)N1CCC[C@H]1C(=O)N[C@@H](Cc1c[nH]cn1)C(=O)N[C@@H](Cc1c[nH]cn1)C(=O)N[C@@H](CCCCN)C(=O)N2
# B8: cyclo(-Tyr-His-Ile-Cys-His-Gly-^DPro-Trp-Thr-Ile-Cys-Tyr-Glu-Lys-^DPro-Pro-) (peptide)
# peptide: cyclo(YHICHG[dP]WTICYEK[dP]P)
# modifications: disulfide 4-11
# SMILES: CC[C@H](C)[C@@H]1NC(=O)[C@H](Cc2c[nH]cn2)NC(=O)[C@H](Cc2ccc(O)cc2)NC(=O)[C@@H]2CCCN2C(=O)[C@H]2CCCN2C(=O)[C@H](CCCCN)NC(=O)[C@H](CCC(=O)O)NC(=O)[C@H](Cc2ccc(O)cc2)NC(=O)[C@@H]2CSSC[C@H](NC1=O)C(=O)N[C@@H](Cc1c[nH]cn1)C(=O)NCC(=O)N1CCC[C@@H]1C(=O)N[C@@H](Cc1c[nH]c3ccccc13)C(=O)N[C@@H]([C@@H](C)O)C(=O)N[C@@H]([C@@H](C)CC)C(=O)N2
# B9: cyclo(-Tyr-His-Ala-Cys-Trp-Gly-^DPro-Trp-Thr-Ile-Cys-Tyr-Gln-Lys-^DPro-Glu-) (peptide)
# peptide: cyclo(YHACWG[dP]WTICYQK[dP]E)
# modifications: disulfide 4-11
# SMILES: CC[C@H](C)[C@@H]1NC(=O)[C@H]([C@@H](C)O)NC(=O)[C@H](Cc2c[nH]c3ccccc23)NC(=O)[C@H]2CCCN2C(=O)CNC(=O)[C@H](Cc2c[nH]c3ccccc23)NC(=O)[C@@H]2CSSC[C@H](NC1=O)C(=O)N[C@@H](Cc1ccc(O)cc1)C(=O)N[C@@H](CCC(N)=O)C(=O)N[C@@H](CCCCN)C(=O)N1CCC[C@@H]1C(=O)N[C@@H](CCC(=O)O)C(=O)N[C@@H](Cc1ccc(O)cc1)C(=O)N[C@@H](Cc1c[nH]cn1)C(=O)N[C@@H](C)C(=O)N2
# B10: cyclo(-Tyr-His-Lys-Cys-Trp-Gly-^DAla-Trp-Thr-Ile-Cys-Tyr-Glu-Lys-^DPro-Pro-) (peptide)
# peptide: cyclo(YHKCWG[dA]WTICYEK[dP]P)
# modifications: disulfide 4-11
# SMILES: CC[C@H](C)[C@@H]1NC(=O)[C@H]([C@@H](C)O)NC(=O)[C@H](Cc2c[nH]c3ccccc23)NC(=O)[C@@H](C)NC(=O)CNC(=O)[C@H](Cc2c[nH]c3ccccc23)NC(=O)[C@@H]2CSSC[C@H](NC1=O)C(=O)N[C@@H](Cc1ccc(O)cc1)C(=O)N[C@@H](CCC(=O)O)C(=O)N[C@@H](CCCCN)C(=O)N1CCC[C@@H]1C(=O)N1CCC[C@H]1C(=O)N[C@@H](Cc1ccc(O)cc1)C(=O)N[C@@H](Cc1c[nH]cn1)C(=O)N[C@@H](CCCCN)C(=O)N2
# B11: cyclo(-Tyr-His-Lys-Cys-His-Gly-^DAla-Trp-Thr-Ile-Cys-Tyr-Glu-Lys-^DPro-Pro-) (peptide)
# peptide: cyclo(YHKCHG[dA]WTICYEK[dP]P)
# modifications: disulfide 4-11
# SMILES: CC[C@H](C)[C@@H]1NC(=O)[C@H]([C@@H](C)O)NC(=O)[C@H](Cc2c[nH]c3ccccc23)NC(=O)[C@@H](C)NC(=O)CNC(=O)[C@H](Cc2c[nH]cn2)NC(=O)[C@@H]2CSSC[C@H](NC1=O)C(=O)N[C@@H](Cc1ccc(O)cc1)C(=O)N[C@@H](CCC(=O)O)C(=O)N[C@@H](CCCCN)C(=O)N1CCC[C@@H]1C(=O)N1CCC[C@H]1C(=O)N[C@@H](Cc1ccc(O)cc1)C(=O)N[C@@H](Cc1c[nH]cn1)C(=O)N[C@@H](CCCCN)C(=O)N2
# B12: cyclo(-Tyr-His-Lys-Cys-His-Gly-^DPro-Phe(4CF3)-Thr-Ile-Cys-Tyr-Glu-Lys-^DPro-Pro-) (peptide)
# peptide: cyclo(YHKCHG[dP][Phe(4-CF3)]TICYEK[dP]P)
# modifications: disulfide 4-11
# SMILES: CC[C@H](C)[C@@H]1NC(=O)[C@H]([C@@H](C)O)NC(=O)[C@H](Cc2ccc(C(F)(F)F)cc2)NC(=O)[C@H]2CCCN2C(=O)CNC(=O)[C@H](Cc2c[nH]cn2)NC(=O)[C@@H]2CSSC[C@H](NC1=O)C(=O)N[C@@H](Cc1ccc(O)cc1)C(=O)N[C@@H](CCC(=O)O)C(=O)N[C@@H](CCCCN)C(=O)N1CCC[C@@H]1C(=O)N1CCC[C@H]1C(=O)N[C@@H](Cc1ccc(O)cc1)C(=O)N[C@@H](Cc1c[nH]cn1)C(=O)N[C@@H](CCCCN)C(=O)N2
# B13: cyclo(-Tyr-His-Lys-Cys-His-Gly-^DPro-Trp-Thr-Val-Cys-Tyr-Glu-Lys-^DPro-Pro-) (peptide)
# peptide: cyclo(YHKCHG[dP]WTVCYEK[dP]P)
# modifications: disulfide 4-11
# SMILES: CC(C)[C@@H]1NC(=O)[C@H]([C@@H](C)O)NC(=O)[C@H](Cc2c[nH]c3ccccc23)NC(=O)[C@H]2CCCN2C(=O)CNC(=O)[C@H](Cc2c[nH]cn2)NC(=O)[C@@H]2CSSC[C@H](NC1=O)C(=O)N[C@@H](Cc1ccc(O)cc1)C(=O)N[C@@H](CCC(=O)O)C(=O)N[C@@H](CCCCN)C(=O)N1CCC[C@@H]1C(=O)N1CCC[C@H]1C(=O)N[C@@H](Cc1ccc(O)cc1)C(=O)N[C@@H](Cc1c[nH]cn1)C(=O)N[C@@H](CCCCN)C(=O)N2
# B14: cyclo(-Dab-His-Lys-Cys-His-Gly-^DPro-Trp-Thr-Ile-Cys-Tyr-Glu-Lys-^DPro-Pro-) (peptide)
# peptide: cyclo([Dab]HKCHG[dP]WTICYEK[dP]P)
# modifications: disulfide 4-11
# SMILES: CC[C@H](C)[C@@H]1NC(=O)[C@H]([C@@H](C)O)NC(=O)[C@H](Cc2c[nH]c3ccccc23)NC(=O)[C@H]2CCCN2C(=O)CNC(=O)[C@H](Cc2c[nH]cn2)NC(=O)[C@@H]2CSSC[C@H](NC1=O)C(=O)N[C@@H](Cc1ccc(O)cc1)C(=O)N[C@@H](CCC(=O)O)C(=O)N[C@@H](CCCCN)C(=O)N1CCC[C@@H]1C(=O)N1CCC[C@H]1C(=O)N[C@@H](CCN)C(=O)N[C@@H](Cc1c[nH]cn1)C(=O)N[C@@H](CCCCN)C(=O)N2
# B15: cyclo(-Tyr-His-Lys-Cys-His-Gly-^DPro-Trp-Thr-Ile-Cys-Tyr-Hse-Lys-^DPro-Pro-) (peptide)
# peptide: cyclo(YHKCHG[dP]WTICY[hSer]K[dP]P)
# modifications: disulfide 4-11
# SMILES: CC[C@H](C)[C@@H]1NC(=O)[C@H]([C@@H](C)O)NC(=O)[C@H](Cc2c[nH]c3ccccc23)NC(=O)[C@H]2CCCN2C(=O)CNC(=O)[C@H](Cc2c[nH]cn2)NC(=O)[C@@H]2CSSC[C@H](NC1=O)C(=O)N[C@@H](Cc1ccc(O)cc1)C(=O)N[C@@H](CCO)C(=O)N[C@@H](CCCCN)C(=O)N1CCC[C@@H]1C(=O)N1CCC[C@H]1C(=O)N[C@@H](Cc1ccc(O)cc1)C(=O)N[C@@H](Cc1c[nH]cn1)C(=O)N[C@@H](CCCCN)C(=O)N2
# Target: T1, Formyl-Peptide Receptor 1 (UniProt P21462 1-350, limits assumed)
# T1 sequence (looked up): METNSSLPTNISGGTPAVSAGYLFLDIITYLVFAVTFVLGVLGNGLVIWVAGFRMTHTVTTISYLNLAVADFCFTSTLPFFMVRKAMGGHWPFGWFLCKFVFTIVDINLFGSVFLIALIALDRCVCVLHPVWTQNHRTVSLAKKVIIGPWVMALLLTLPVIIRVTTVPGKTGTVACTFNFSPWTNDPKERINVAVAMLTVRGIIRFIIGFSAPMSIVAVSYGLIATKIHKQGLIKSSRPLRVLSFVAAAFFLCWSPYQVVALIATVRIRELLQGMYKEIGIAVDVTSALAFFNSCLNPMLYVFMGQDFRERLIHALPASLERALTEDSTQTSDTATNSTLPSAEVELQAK
# Assay: cell-based or functional assay
binder,measurement,value
B1,β-Arrestin IC50,153 nM
B2,β-Arrestin IC50,248 nM
B3,β-Arrestin IC50,633 nM
B4,β-Arrestin IC50,177 nM
B5,β-Arrestin IC50,271 nM
B6,β-Arrestin IC50,93 nM
B7,β-Arrestin IC50,239 nM
B8,β-Arrestin IC50,50 nM
B9,β-Arrestin IC50,60 nM
B10,β-Arrestin IC50,69 nM
B11,β-Arrestin IC50,77 nM
B12,β-Arrestin IC50,114 nM
B13,β-Arrestin IC50,232 nM
B14,β-Arrestin IC50,194 nM
B15,β-Arrestin IC50,138 nM
